Patent US20050255113A1, “Methods and compositions for inhibiting polypeptide accumulation associated with neurological disorders” (New York State Department of Health and Abgenix, Inc., priority 1999, published 2005)

System: HD-polyQ72-GFP or HD-Q104-GFP in BHK cells
Assay: Double label immunofluorescence of BHK cells co-transfected with C4 sFv and HD-polyQ-GFP
Assay type: cell-based
Conditions: 5:1 C4:HD-polyQ-GFP
Procedure: Some aggregates are found in 104Q co-transfections (never in 25Q), often in cells not expressing C4 (arrowheads), but in some dually-transfected cells as well (arrow). […] Cell lysates were collected from 5:1 co-transfections (sFv:HD-72Q-GFP) in duplicate at 24 hours (prior to prominent aggregate formation and loss of HD-72Q-GFP to the insoluble compartment) and subjected to SDS-PAGE. The membrane was probed with 1:1000 […] primary antibody (Quantum), stripped and reprobed with 1:500 anti-actin antibody (Sigma). HD-72Q-GFP bands were of similar intensity after detection by HRP-conjugated secondary antibody and chemiluminescence.
The typical intrabody constructs were fused to a C-terminal hemagglutinin (HA) peptide tag to facilitate immunodetection of the protein, while keeping the protein localized to the cytosol. […] The diffuse labeling was also characteristic of the normal length (25Q) construct, with or without intrabody co-transfection (FIG. 15).

B1: C4 sFv: human single-chain Fv intrabody from phage display, specific for the 17 N-terminal residues of huntingtin; SEQ ID NO: 6 (protein)
scFv: QVQLQESGGGLVQPGGSLRLSCAASGFTFSSYSMSWVRQAPGKGLEWVAVISYDGSNKYYADSVKGRFTISRDNSKNTLYLQMNSLRAEDTAVYYCARDRYFDLWGRGTLVTVSSGGGGSGGGGSGGGGSQSALTQPASVSGSPGQSITISCTGTSSDIGAYNYVSWYQQYPGKAPKLLIYDVSNRPSGISNRFSGSKSGDTASLTISGLQAEDEADYYCSSFANSGPLFGGGTKVTVL
**Q.** Which “GFP label and aggregates in dual transfectants” value does the source give for B1 here?
**A.** substantial diffuse GFP label, but with only an occasional fluorescent aggregate
